Experimental data taken from patent publication US12662524B2.
Residue numbers refer to the chain shown, from its start. Names may count otherwise. Like-named read-outs stand apart in the source and are kept apart here.

B1: D2M2-4 (Tetra) (protein)
chain: CEVPTRLNSASLKQPYITQNYFPVGTVVEYECRPGYRRQPSLSPKLTCLQNLKWSTAVEFCKKKSCPNIRDPLNGQAVPANGTYEFGYQMHFICNEGYYLAGEEILYCELKGSVAIWSGKPPICEKVKCTPPPKIKNGKHTFSEVEVFEYLDAVTYSCDPAPGPDPFSLIGESTIYCGDNSVWSRAAPECKVVKCRFPVVENGKQISGFGKKFYYKATVMFECDKGFYLDGSDTIVCDSNSTWDPPVPKCLKVL
B2: D2M2-4 (Y101N) (protein)
chain: B1 chain with Q39E, A101I, K128L
B3: D2M2-4 (I134A) (protein)
chain: B1 chain with Q39E, N68Y, K128L
B4: D2M2-4 (L161K) (protein)
chain: B1 chain with Q39E, N68Y, A101I
B5: D2M2-4 (E136Q) (D2) (protein)
chain: B1 chain with N68Y, A101I, K128L

How the values were obtained:
[1] = molecular target: AP C3-convertase (C3bBb) (Homo sapiens (Human)) (UniProt P01024)
[2] = molecular target: AP C3-convertase (C3bBb) (Homo sapiens (Human)) (UniProt P01024); remark: listed apart in the source
[3] = substrate: CP C3-convertase (C4b2a) (Homo sapiens (Human)) (UniProt P0C0L4)

Binder | AP-DAA [1] [fold] | AP-DAA [2] [fold] | CP-DAA [3] [fold]
B1 | 12.5 |  | 
B2 |  | 7.2 | 
B3 |  | 6.7 | 2
B4 |  | 3.4 | 2
B5 |  | 5.6 | 
